Reference: paper PMC6278376, “Dynamics-Derived Insights into Complex Formation between the CXCL8 Monomer and CXCR1 N-Terminal Domain: An NMR Study” (Molecules, 2018)

Key:
[1] = target: T1, CXCL8 monomer (residues 1–66) (disulfides Cys9-Cys50 (printed) and Cys7-Cys34 (by convention), mature numbering; mature residue 1 = precursor 28 (offset +27), matching PDB 5WDZ entity 1 (66 aa); 15N-labelled for NMR); assay: ITC; 890 μM CXCR1 N-domain peptide injected into 80 μM CXCL8 monomer; 50 mM sodium phosphate pH 6.0, 25 °C; single-binding site model; conditions: both partners purified
[2] = target: T1, CXCL8 monomer (residues 1–66); assay: NMR titration; 200 μM 15N-CXCL8 titrated with unlabeled CXCR1 peptide (2.5 mM stock, molar ratios 0 to 8.4); 2D 1H-15N HSQC; shift changes fit to a 1:1 model for KD; line shape analysis (Bloch–McConnell, two-site exchange) for koff, kon = koff/KD; 50 mM sodium phosphate pH 6.0, 30 °C; conditions: both partners purified

T1 sequence (chain, as listed by the source): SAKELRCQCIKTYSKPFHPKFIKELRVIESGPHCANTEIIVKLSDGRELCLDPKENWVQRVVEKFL

Kd [1]: 8.4 ± 0.5 µM
dH [1]: -2.6 ± 0.2 kcal/mol
stoichiometry N [1]: 0.93 ± 0.03
Kd [2]: ~5 µM
B1: CXCR1 N-domain peptide corresponding to the first 29 amino acids (29mer) (peptide, UniProt P25024 1-29, looked up)
chain: MSNITDPQMWDFDDLNFTGMPPADEDYSP
notes: CXCR1 receptor, N-terminal domain, first 29 amino acids (M1, S2 ... S28 named in the text); human by the discussion's contrast with the rabbit peptide; Recombinant peptide; 15N-labelled where it was the observed species in NMR, unlabelled otherwise; also called CXCR1 N-domain 29mer; CXCR1 N-terminal domain; source: E. coli BL21(DE3), purified
